Source: patent US20260209362A1 (VIB VZW, published 2026)

T1: human IL-12Rβ2 expressed on cells (human, UniProt Q99665 24-862)
T1 sequence: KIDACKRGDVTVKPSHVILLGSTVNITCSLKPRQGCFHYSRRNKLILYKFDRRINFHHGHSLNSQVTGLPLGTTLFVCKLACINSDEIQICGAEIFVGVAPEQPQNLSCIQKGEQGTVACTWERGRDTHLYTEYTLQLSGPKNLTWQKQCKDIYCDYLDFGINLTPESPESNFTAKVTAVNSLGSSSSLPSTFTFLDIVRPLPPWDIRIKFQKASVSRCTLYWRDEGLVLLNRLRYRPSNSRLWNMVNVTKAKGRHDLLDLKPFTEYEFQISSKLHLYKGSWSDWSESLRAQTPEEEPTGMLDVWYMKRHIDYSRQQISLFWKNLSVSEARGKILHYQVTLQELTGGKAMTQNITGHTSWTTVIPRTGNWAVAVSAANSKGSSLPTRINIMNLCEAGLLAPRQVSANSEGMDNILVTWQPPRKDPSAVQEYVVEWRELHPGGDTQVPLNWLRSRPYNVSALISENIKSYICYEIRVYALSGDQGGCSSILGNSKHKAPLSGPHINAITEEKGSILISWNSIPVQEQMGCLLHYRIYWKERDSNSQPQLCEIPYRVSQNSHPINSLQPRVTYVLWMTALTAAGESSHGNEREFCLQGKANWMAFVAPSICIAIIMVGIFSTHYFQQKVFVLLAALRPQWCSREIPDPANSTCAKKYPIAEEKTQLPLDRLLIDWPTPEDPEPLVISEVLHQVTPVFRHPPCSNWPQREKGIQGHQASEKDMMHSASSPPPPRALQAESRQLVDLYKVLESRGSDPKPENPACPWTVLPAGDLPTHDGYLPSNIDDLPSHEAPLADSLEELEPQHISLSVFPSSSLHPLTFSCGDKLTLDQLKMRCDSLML


Target: T1, human IL-12Rβ2 expressed on cells
Assay: cell-based or functional assay

% Specific Cell Lysis at 0.00125 ug/mL | % Specific Cell Lysis at 0.5 ug/mL | % Specific Cell Lysis at 10 ug/mL | % Specific Cell Lysis at 0.025 ug/mL | Binder
59% | 67.7% | 67.3% |  | 20429-FcDE (Fc fusion) VHH-Fc chain: QVQLQESGGGLVQPGGSLRLSCKASGFTFSTYAMSWVRQAPGKGLEWVSAVNSGGLSTDYADSVEGRFTISRDDAKNMLFLQMNSLKPEDTARYYCAKYEDCSDYMCHRDRAGYWGQGTQVTVSSAPELLGGPDVFLFPPKPKDTLMISRTPEVTCVVVDVSHEDPEVKFNWYVDGVEVHNAKTKPREEQYNSTYRVVSVLTVLHQDWLNGKEYKCKVSNKALPAPEEKTISKAKGQPREPQVYTLPPSRDELTKNQVSLTCLVKGFYPSDIAVEWESNGQPENNYKTTPPVLDSDGSFFLYSKLTVDKSRWQQGNVFSCSVMHEALHNHYTQKSLSLSPGK
46.5% | 64.7% | 73.3% | 51.6% | anti-IL-12Rβ2-VHH-FcDE clone 21053 (Fc fusion) QVQLQESGGGLVQAGGSLRLSCAASGRTFSNYAMAWFRQAPGTEREFVAGLSGSGGDTEFYDDSVKGRFAISRDSAKNTVWLQMNSLKPEDTAVYYCAAATHVVVHYGLVRRRGTYDYWGQGTQVTVSSAPELLGGPDVFLFPPKPKDTLMISRTPEVTCVVVDVSHEDPEVKFNWYVDGVEVHNAKTKPREEQYNSTYRVVSVLTVLHQDWLNGKEYKCKVSNKALPAPEEKTISKAKGQPREPQVYTLPPSRDELTKNQVSLTCLVKGFYPSDIAVEWESNGQPENNYKTTPPVLDSDGSFFLYSKLTVDKSRWQQGNVFSCSVMHEALHNHYTQKSLSLSPGK
52.8% | 68.8% | 77.9% | 61.1% | 20415-FcDE (Fc fusion) VHH-Fc chain: QVQLQESGGGLVQPGGSLRLSCTASGSIVSIYNMDWYRQAPGNEREWVASITSSGDPYYDGSAKGRFTISRDNAKMTVYLQMNSLKPEDTAVYYCKVPTEKGNYWGQGTQVTVSSAPELLGGPDVFLFPPKPKDTLMISRTPEVTCVVVDVSHEDPEVKFNWYVDGVEVHNAKTKPREEQYNSTYRVVSVLTVLHQDWLNGKEYKCKVSNKALPAPEEKTISKAKGQPREPQVYTLPPSRDELTKNQVSLTCLVKGFYPSDIAVEWESNGQPENNYKTTPPVLDSDGSFFLYSKLTVDKSRWQQGNVFSCSVMHEALHNHYTQKSLSLSPGK
 | 65.8% | 67.3% |  | 20422-FcDE (Fc fusion) VHH-Fc chain: QVQLQESGGGLVQPGGSLRLSCTASGSIVSIYNMDWYRQAPGNEREWVASITSSGDPYYDGSAKGRFTISRDNAKMTVYLQMNSLEPEDTAVYFCKVPTEKGNYWGQGTQVTVSSAPELLGGPDVFLFPPKPKDTLMISRTPEVTCVVVDVSHEDPEVKFNWYVDGVEVHNAKTKPREEQYNSTYRVVSVLTVLHQDWLNGKEYKCKVSNKALPAPEEKTISKAKGQPREPQVYTLPPSRDELTKNQVSLTCLVKGFYPSDIAVEWESNGQPENNYKTTPPVLDSDGSFFLYSKLTVDKSRWQQGNVFSCSVMHEALHNHYTQKSLSLSPGK
49.5% | 63.4% | 66.9% |  | anti-IL-12Rβ2-VHH-FcDE clone 20438 (Fc fusion) QVQLQESGGGLVQPGGSLRLSCTASGFAFSTYWMYWIRQSPEKGFEWVSVVNTGGDITYYADSVKGRFTISRDNAKNTLYLQMNSLKPEDTALYYCARDRTTMSYTRTYYRGGQGTQVTVSSAPELLGGPDVFLFPPKPKDTLMISRTPEVTCVVVDVSHEDPEVKFNWYVDGVEVHNAKTKPREEQYNSTYRVVSVLTVLHQDWLNGKEYKCKVSNKALPAPEEKTISKAKGQPREPQVYTLPPSRDELTKNQVSLTCLVKGFYPSDIAVEWESNGQPENNYKTTPPVLDSDGSFFLYSKLTVDKSRWQQGNVFSCSVMHEALHNHYTQKSLSLSPGK
 | 73.5% | 75.5% | 63.9% | anti-IL-12Rβ2-VHH-FcDE clone 21060 (Fc fusion) QVQLQESGGGLVQAGGSLSLSCAASGSAFRLNFMGWYRQAPGKQRELVAAINSGGTEIYHDSVKGRFTISRDNADSTVWLQMNSLKPDDTAVYYCAADRGISWSKLAGGMDYWGKGTQVTVSSAPELLGGPDVFLFPPKPKDTLMISRTPEVTCVVVDVSHEDPEVKFNWYVDGVEVHNAKTKPREEQYNSTYRVVSVLTVLHQDWLNGKEYKCKVSNKALPAPEEKTISKAKGQPREPQVYTLPPSRDELTKNQVSLTCLVKGFYPSDIAVEWESNGQPENNYKTTPPVLDSDGSFFLYSKLTVDKSRWQQGNVFSCSVMHEALHNHYTQKSLSLSPGK
61.3% | 67.7% | 69% | 65.9% | 20421-FcDE (Fc fusion) VHH-Fc chain: QVQLQESGGGLVQPGGSLRLSCAASGFTFSTYAMSWVRQAPGKGLEWVSAVNSGGLSTDYADSVEGRFTISRDDAKNMLFLQMNRLKPEDTARYYCAKYEDCSDYVCDRAGYWGQGTQVTVSSAPELLGGPDVFLFPPKPKDTLMISRTPEVTCVVVDVSHEDPEVKFNWYVDGVEVHNAKTKPREEQYNSTYRVVSVLTVLHQDWLNGKEYKCKVSNKALPAPEEKTISKAKGQPREPQVYTLPPSRDELTKNQVSLTCLVKGFYPSDIAVEWESNGQPENNYKTTPPVLDSDGSFFLYSKLTVDKSRWQQGNVFSCSVMHEALHNHYTQKSLSLSPGK
63.3% | 71.7% | 66.2% | 66.5% | anti-IL-12Rβ2-VHH-FcDE clone 20407 (Fc fusion) QVQLQESGGGLVQPGGSLRLTCVASGFPFSTHAMSWVRQPPGKGREWISAINSGGDSTDYADSVMGRFTISRDNAKNTVYLQMNSLKSEDTAAYYCAKYEDCSDYDCSSRASWGQGTQVTVSSAPELLGGPDVFLFPPKPKDTLMISRTPEVTCVVVDVSHEDPEVKFNWYVDGVEVHNAKTKPREEQYNSTYRVVSVLTVLHQDWLNGKEYKCKVSNKALPAPEEKTISKAKGQPREPQVYTLPPSRDELTKNQVSLTCLVKGFYPSDIAVEWESNGQPENNYKTTPPVLDSDGSFFLYSKLTVDKSRWQQGNVFSCSVMHEALHNHYTQKSLSLSPGK
52.7% | 60.9% | 69.5% |  | anti-IL-12Rβ2-VHH-FcDE clone 21062 (Fc fusion) QVQLQESGGGLVQPGGSLRLSCAASGISSSRLHVGWFRQSPGKEREFVAAISLSGGTQAYTDSVKGRFTISGDNVKNTAYLQMNSLRPEDTAVYYCAARERFIWTWSDLTYDYWGQGTQVTVSSAPELLGGPDVFLFPPKPKDTLMISRTPEVTCVVVDVSHEDPEVKFNWYVDGVEVHNAKTKPREEQYNSTYRVVSVLTVLHQDWLNGKEYKCKVSNKALPAPEEKTISKAKGQPREPQVYTLPPSRDELTKNQVSLTCLVKGFYPSDIAVEWESNGQPENNYKTTPPVLDSDGSFFLYSKLTVDKSRWQQGNVFSCSVMHEALHNHYTQKSLSLSPGK
 |  |  | 54.3% | anti-IL-12Rβ2-VHH-Fc clone 20432 with a wildtype IgG1 Fc sequence (Fc fusion) QVQLQESGGGLVQPGGSLRLSCAASGFTFSTSGMHWFRQAPGKGLEWVSSIGATVDNSYYASSVKGRFTISRDNAKNTLYLLMNSLKSEDTAVYYCSKDPTGSSRGQGTQVTVSSAPELLGGPSVFLFPPKPKDTLMISRTPEVTCVVVDVSHEDPEVKFNWYVDGVEVHNAKTKPREEQYNSTYRVVSVLTVLHQDWLNGKEYKCKVSNKALPAPIEKTISKAKGQPREPQVYTLPPSRDELTKNQVSLTCLVKGFYPSDIAVEWESNGQPENNYKTTPPVLDSDGSFFLYSKLTVDKSRWQQGNVFSCSVMHEALHNHYTQKSLSLSPGK
42.4% | 61.3% | 63.7% | 50.1% | anti-IL-12Rβ2-VHH-FcDE clone 21050 (Fc fusion) QVQLQESGGGLVQAGGSLRLSCAASGRTFNNYAMAWFRQAPGKEREFIAAITRSDTTLYIDSVKGRFTISRDNAKNTVALQMNSLKPEDTAVYYCAAGMPYSYSDYPRDSKYDYWGRGTQVTVSSAPELLGGPDVFLFPPKPKDTLMISRTPEVTCVVVDVSHEDPEVKFNWYVDGVEVHNAKTKPREEQYNSTYRVVSVLTVLHQDWLNGKEYKCKVSNKALPAPEEKTISKAKGQPREPQVYTLPPSRDELTKNQVSLTCLVKGFYPSDIAVEWESNGQPENNYKTTPPVLDSDGSFFLYSKLTVDKSRWQQGNVFSCSVMHEALHNHYTQKSLSLSPGK
